Results on one substance are retold here after publication PMC11455619.

The target in the assay is septin-7 (commercially purified, LSBio) (UniProt Q16181). Put plainly: MST.
Sequence of septin-7 (commercially purified, LSBio) (Q16181 whole entry): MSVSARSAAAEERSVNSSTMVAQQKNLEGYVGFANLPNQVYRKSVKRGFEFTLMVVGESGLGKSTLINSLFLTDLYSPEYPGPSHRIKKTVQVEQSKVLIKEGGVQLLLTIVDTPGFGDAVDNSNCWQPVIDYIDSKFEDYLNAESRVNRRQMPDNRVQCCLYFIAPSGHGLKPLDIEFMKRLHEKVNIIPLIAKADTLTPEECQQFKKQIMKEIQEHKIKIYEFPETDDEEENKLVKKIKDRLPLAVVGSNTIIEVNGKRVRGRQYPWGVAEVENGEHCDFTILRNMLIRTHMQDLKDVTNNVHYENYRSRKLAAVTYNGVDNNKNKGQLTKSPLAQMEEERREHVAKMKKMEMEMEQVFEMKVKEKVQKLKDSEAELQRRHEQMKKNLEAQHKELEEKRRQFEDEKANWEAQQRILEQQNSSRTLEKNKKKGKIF

The term Kd denotes the constant that tells how readily two partners part at equilibrium. A high value points to a looser complex. Substance “SOD1 trimer, HG trimer-stabilising mutant (printed as H46G-G108H and as H46Q-G108H) (from UniProt P00441 1-154) (enzyme)” had a Kd of 7.48 µM.
